Square brackets hold non-standard residues; d marks the D form. Ends that are not written are not given here. Peptide text beside a SMILES is read from it. * marks the point of attachment. His(Trt) = N[C@@H](Cc1cn(C(c2ccccc2)(c2ccccc2)c2ccccc2)cn1)C(=O)O; dHis(Trt) = N[C@H](Cc1cn(C(c2ccccc2)(c2ccccc2)c2ccccc2)cn1)C(=O)O; Biotin = O=C1N[C@H]2[C@H](CS[C@H]2CCCCC(=O)*)N1; His(τ-Bzl) = N[C@@H](Cc1cn(Cc2ccccc2)cn1)C(=O)O; 4‑chlorobenzhydryl = Clc1ccc(C(c2ccccc2)*)cc1; Bip = N[C@@H](Cc1ccc(-c2ccccc2)cc1)C(=O)O; dPhe(4-Br) = N[C@H](Cc1ccc(Br)cc1)C(=O)O; dPhe(4-Me) = Cc1ccc(C[C@@H](N)C(=O)O)cc1; Trt = c1ccc(C(c2ccccc2)(c2ccccc2)*)cc1; dPhe(4-F) = N[C@H](Cc1ccc(F)cc1)C(=O)O; Dmt = Cc1cc(O)cc(C)c1C[C@H](N)C(=O)O; Benzhydryl = c1ccc(C(c2ccccc2)*)cc1; Palmitoyl = CCCCCCCCCCCCCCCC(=O)*; Myristoyl = CCCCCCCCCCCCCC(=O)*; Lauroyl = CCCCCCCCCCCC(=O)*; Decanoyl = CCCCCCCCCC(=O)*; Octanoyl = CCCCCCCC(=O)*; SO3H = O=S(=O)(O)*; Bn = c1ccc(C*)cc1
B1: HKFY-39 (peptide)
peptide: H(Trt)K(Octanoyl)FYSQNGARF
modifications: also: C-terminal amide in IUPAC name, not in sequence formula, .39 lacks Gln-Asn
B2: HKFY-38 (peptide)
peptide: H(Trt)K(Octanoyl)FYSDQQARF
modifications: not fully specified; printed as His(trt)-Lys(caprylic)-Phe-Tyr-Ser-Asp-Gln-Gln-Ala-Arg-Phe
B3: HKFY-40 (peptide)
peptide: H(Trt)K(Octanoyl)FYSHQQARF
modifications: not fully specified; printed as His(trt)-Lys(caprylic)-Phe-Tyr-Ser-His-Gln-Gln-Ala-Arg-Phe
B4: HKFY-42 (peptide)
peptide: H(Trt)K(Octanoyl)FYHQQARF
modifications: not fully specified; printed as His(trt)-Lys(caprylic)-Phe-Tyr-His-Gln-Gln-Ala-Arg-Phe

What was measured:
GPR39 = target: T1, GPR39 (Homo sapiens, UniProt O43194); experiment: luciferase assay system (SRE luciferase reporter gene, CV-1 cells expressing GPR39); assay type: cell-based; set-up: expressed in transfected cells; host or cells: CV-1 fibroblast cell line (Korea Cell Line Bank), adenoviral transduction at 50 MOI
T1 sequence (O43194 1-453): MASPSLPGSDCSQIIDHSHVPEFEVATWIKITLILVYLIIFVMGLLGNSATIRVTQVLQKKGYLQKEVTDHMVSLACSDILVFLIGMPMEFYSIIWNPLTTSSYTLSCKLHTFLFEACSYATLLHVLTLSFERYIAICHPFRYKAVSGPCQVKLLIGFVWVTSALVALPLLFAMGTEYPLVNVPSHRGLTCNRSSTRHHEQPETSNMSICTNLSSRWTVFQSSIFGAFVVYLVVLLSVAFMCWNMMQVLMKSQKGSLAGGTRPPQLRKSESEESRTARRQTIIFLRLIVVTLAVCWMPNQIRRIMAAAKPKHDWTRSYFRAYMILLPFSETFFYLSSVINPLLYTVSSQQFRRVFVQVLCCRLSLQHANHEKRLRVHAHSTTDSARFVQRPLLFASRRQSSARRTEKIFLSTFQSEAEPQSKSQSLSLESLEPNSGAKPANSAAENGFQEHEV

[1] = target: T2, GPR39 (G protein coupled receptor 39) (UniProt O43194 1-453, limits assumed); experiment: cell-based or functional assay
T2 sequence (looked up): T1 sequence (O43194 1-453)

Molecule	ECmax (−fold induction over basal) (GPR39) [fold induction over basal]	EC50; SRE-luciferase reporter [1] [nM]	ECmax; SRE-luciferase reporter [1]
CCCCCCCC(=O)NCCCC[C@H](NC(=O)[C@@H](N)Cc1cn(C(c2ccccc2)(c2ccccc2)c2ccccc2)cn1)C(=O)N[C@@H](Cc1ccccc1)C(=O)N[C@@H](Cc1ccc(O)cc1)C(=O)O [HKFY-1, N6-octanoyl-N2-(Nt-trityl-L-histidyl)-L-lysyl-L-phenylalanyl-L-tyrosine] (H-[His(Trt)]K(Octanoyl)FY-OH)	20.51 ± 0.57		
CCCCCCCC(=O)NCCCC[C@H](NC(=O)[C@H](Cc1cn(C(c2ccccc2)(c2ccccc2)c2ccccc2)cn1)NC(=O)CCCC[C@@H]1SC[C@@H]2NC(=O)N[C@@H]21)C(=O)N[C@@H](Cc1ccccc1)C(=O)N[C@@H](Cc1ccc(O)cc1)C(=O)O [HKFY-2, N6-octanoyl-N2-(Na-(5-((3aS,4S,6aR)-2-oxohexahydro-1H-thieno[3,4-d]imidazol-4-yl)pentanoyl)-Nt-trityl-L-histidyl)-L-lysyl-L-phenylalanyl-L-tyrosine] (Biotin-[His(Trt)]K(Octanoyl)FY-OH)	15 ± 1.87		
CCCCCCCC(=O)NCCCC[C@H](NC(=O)[C@@H](N)Cc1cn(Cc2ccccc2)cn1)C(=O)N[C@@H](Cc1ccccc1)C(=O)N[C@@H](Cc1ccc(O)cc1)C(=O)O [HKFY-3, N2-(Nt-benzyl-L-histidyl)-N6-octanoyl-L-lysyl-L-phenylalanyl-L-tyrosine] (H-[His(τ-Bzl)]K(Octanoyl)FY-OH)	9.2 ± 2.58		
CCCCCCCC(=O)NCCCC[C@H](NC(=O)[C@H](N)Cc1cn(C(c2ccccc2)(c2ccccc2)c2ccccc2)cn1)C(=O)N[C@@H](Cc1ccccc1)C(=O)N[C@@H](Cc1ccc(O)cc1)C(=O)O [HKFY-4, N6-octanoyl-N2-(Nt-trityl-D-histidyl)-L-lysyl-L-phenylalanyl-L-tyrosine] (H-[dHis(Trt)]K(Octanoyl)FY-OH)	16.8 ± 1.87		
CCCCCCCC(=O)NCCCC[C@H](NC(=O)[C@@H](N)Cc1cn(C(c2ccccc2)(c2ccccc2)c2ccc(C)cc2)cn1)C(=O)N[C@@H](Cc1ccccc1)C(=O)N[C@@H](Cc1ccc(O)cc1)C(=O)O [HKFY-5, N2-(Nt-(diphenyl(p-tolyl)methyl)-L-histidyl)-N6-octanoyl-L-lysyl-L-phenylalanyl-L-tyrosine]	16 ± 1.7		
H(Bn)K(Octanoyl)FY [HKFY-3]		4130	9.2 -fold induction over basal
HK(Octanoyl)[dPhe(4-Me)]Y (not fully specified (residue 1)) [HKFY-32]		2	21.5 -fold induction over basal
H(Trt)K(Decanoyl)FY-OH [HKFY-24]		240	7.03 -fold induction over basal
B1			12.1 -fold induction over basal
H(Benzhydryl)K(Octanoyl)[dPhe(4-Me)]Y(SO3H) [HKFY-35]		280	18.9 -fold induction over basal
His(Trt)-Lys(Octanoyl)-Phe-OH [HKFY-49]		320	18.3 -fold induction over basal
H(Trt)K(Lauroyl)FY-OH [HKFY-25]		630	7.72 -fold induction over basal
H(Benzhydryl)K(Octanoyl)[dPhe(4-Me)][Dmt] [HKFY-36]		150	9.9 -fold induction over basal
H(4‑chlorobenzhydryl)K(Octanoyl)FY [HKFY-21]		136000	18.3 -fold induction over basal
[dH](Trt)K(Octanoyl)FY [HKFY-4]		130	16.8 -fold induction over basal
H(Trt)K(Octanoyl)FYQNGARF (not fully specified (C-terminus)) [HKFY-41]		9550	12.2 -fold induction over basal
H(Trt)K(Octanoyl)FYW [HKFY-44]		370	20 -fold induction over basal
H(Trt)K(Octanoyl)FW [HKFY-46]		260	20 -fold induction over basal

Molecule	ECmax (−fold induction over basal) (GPR39) [fold induction over basal]	EC50; SRE-luciferase reporter [1] [nM]	ECmax; SRE-luciferase reporter [1]
HK(Octanoyl)FY (not fully specified; also: His1 substituent: adamantan-1-yl or adamantanmethyl) [HKFY-23]		2600	15 -fold induction over basal
Biotin-H(Trt)K(Octanoyl)[Bip]Y [HKFY-45]		140	21 -fold induction over basal
B2		3500	16.5 -fold induction over basal
B3		1300	13.4 -fold induction over basal
H(Trt)K(Octanoyl)FYQNQARF (also: C-terminal Phe amide in IUPAC name, not in sequence formula) [HKFY-43]		1210	12.1 -fold induction over basal
H(Trt)K(Octanoyl)[dPhe(4-Me)]Y [HKFY-30]		8	23.9 -fold induction over basal
H(Trt)K(Octanoyl)[dPhe(4-Br)]Y-OH [HKFY-29]		310	26.8 -fold induction over basal
H(4‑methylbenzhydryl)K(Octanoyl)FY [HKFY-22]		59800	21.3 -fold induction over basal
H(Trt)K(Octanoyl)YF-OH [HKFY-47]		300	13 -fold induction over basal
GSH(Trt)K(Octanoyl)FY [HKFY-37]		1840	16 -fold induction over basal
[dH](Trt)K(Octanoyl)[dPhe(4-Me)]Y [HKFY-31]		20	20.9 -fold induction over basal
H(Benzhydryl)K(Octanoyl)FY [HKFY-33]		150	20 -fold induction over basal
H(Trt)K(Palmitoyl)FY-OH [HKFY-27]		560	20.4 -fold induction over basal
H(Trt)K(Octanoyl)YY-OH [HKFY-48]		330	14.4 -fold induction over basal
H(Trt)K(Octanoyl)[dPhe(4-F)]Y-OH [HKFY-28]		74	22.9 -fold induction over basal
H(Trt)K(Myristoyl)FY-OH [HKFY-26]		280	19.8 -fold induction over basal
B4		1580	11.8 -fold induction over basal

Source: US20250340591A1, “COMPOSITION FOR PREVENTING OR TREATING INFLAMMATORY BOWEL DISEASE CONTAINING NOVEL COMPOUND” (ANYGEN CO., LTD., priority 2021, published 2025)
